Where “and” joins values, the source holds several entries; their conditions need not be identical. Equal values may be shown once.

What all share (settings): remark: other sources report otherwise
Assay [1] addresses recombinant soluble homotrimeric HA of A/Anhui/1/05 (H5N1) (Influenza A virus A/Anhui/1/2005 (H5N1)). The experiment in a line: HA microarray, control mAb.
Assay [2] addresses recombinant soluble homotrimeric HA of A/California/4/09 (H1N1) (Influenza A virus A/California/04/2009 (H1N1)). As to the kind of experiment: HA microarray, control mAb.
The target of assay [3] is recombinant soluble homotrimeric HA of A/Egypt/3300-NAMRU3/08 (H5N1) (Influenza A virus A/Egypt/3300-NAMRU3/2008 (H5N1)). The experiment in a line: HA microarray, control mAb.
The target of assay [4] is recombinant soluble homotrimeric HA of A/Hong Kong/2108/03 (H9N2) (Influenza A virus A/Hong Kong/2108/2003 (H9N2)). The experiment in a line: HA microarray, control mAb.
The target in assay [5] is recombinant soluble homotrimeric HA of A/Indonesia/5/05 (H5N1) (Influenza A virus A/Indonesia/5/2005 (H5N1)). The experiment in a line: HA microarray, control mAb.
Assay [6] addresses recombinant soluble homotrimeric HA of A/Japan/305/57 (H2N2) (Influenza A virus A/Japan/305/1957 (H2N2)). The experiment in a line: HA microarray, control mAb.
Assay [7] concerns the target recombinant soluble homotrimeric HA of A/Netherlands/219/03 (H7N7) (Influenza A virus A/Netherlands/219/03 (H7N7)). As to the kind of experiment: HA microarray, control mAb.
The target in assay [8] is recombinant soluble homotrimeric HA of A/Solomon Islands/3/06 (H1N1) (Influenza A virus A/Solomon Islands/3/2006 (H1N1)). As to the kind of experiment: HA microarray, control mAb.
Assay [9] has as its target recombinant soluble homotrimeric HA of A/Vietnam/1203/04 (H5N1) (Influenza A virus A/Vietnam/1203/2004 (H5N1)). The experiment in a line: HA microarray, control mAb.
Assay [10] deals with recombinant soluble homotrimeric HA of A/Wisconsin/67/05 (H3N2) (Influenza A virus A/Wisconsin/67/2005 (H3N2)). The experiment in a line: HA microarray, control mAb.
Assay [11] addresses recombinant soluble homotrimeric HA of A/chicken/Vietnam/NCVD-016/08 (H5N1) (Influenza A virus A/chicken/Vietnam/NCVD-016/2008 (H5N1)). The experiment in a line: HA microarray, control mAb.
Assay [12] deals with recombinant soluble homotrimeric HA of A/duck/Yangzhou/02/2005 (H8N4) (Influenza A virus A/duck/Yangzhou/02/2005 (H8N4)). The experiment in a line: HA microarray, control mAb.
The target in assay [13] is recombinant soluble homotrimeric HA of A/swine/Ontario/01911-2/99 (H4N6) (Influenza A virus A/Swine/Ontario/01911-2/99 (H4N6)). The experiment in a line: HA microarray, control mAb.
Assay [14] concerns the target recombinant soluble homotrimeric HA, A/Anhui/1/05 (H5N1) (influenza A virus A/Anhui/1/2005 (H5N1)). The experiment in a line: microarray, trimeric HA, transfection supernatant.
Assay [15] addresses recombinant soluble homotrimeric HA, A/Hong Kong/156/97 (H5N1) (influenza A virus A/Hong Kong/156/97 (H5N1)). The experiment in a line: microarray, trimeric HA, transfection supernatant.
Assay [16] addresses recombinant soluble homotrimeric HA, A/duck/Yangzhou/02/2005 (H8N4) (influenza A virus A/duck/Yangzhou/02/2005 (H8N4)). As to the kind of experiment: microarray, trimeric HA, transfection supernatant.

B1: TCN-504 (3251_K17) (antibody, V domains shown)
VH: QVQLQESGPGLVKPSETLSLTCAVSGVSISNIDFYWGWIRQPPGKGLEWIGNIYYTGITFYNPSLSSRVAISIDTSKNQFSLTLTSVTAADTAMYYCARHYGDSEAINDAFDIWGQGTMLTVSS
VL: EIVMTQSPATLSVSPGERATLSCRASQSVGNSLAWYQQRPGQAPRLLIYGASTRATGIPPRFSGSGSGTEFTLTISSLQTEDFAVYYCQQYINWRPLSFGGGTKVEIK
As for B1, the Trimeric HA Binding RLU in [1] came out at 26200 RLU; in [2], 3330 RLU; in assay [3] it was 44400 RLU; in assay [4], 454 RLU; in assay [5], 43300 RLU; in assay [6] it was 4090 RLU. Also, the Trimeric HA Binding RLU in assay [7] came to 47200 RLU; in assay [8], 24100 RLU; in assay [9], 196 RLU; in assay [10], 40500 RLU; in assay [11] it was 38500 RLU; in [12], 14100 RLU. Moreover, the Trimeric HA Binding RLU in assay [13] was 14700 RLU; in assay [14], 30000 RLU and 14100 RLU and 37200 RLU; in [15], 26600 RLU; in assay [16], 19600 RLU and 19900 RLU and 35100 RLU.

Values taken from patent US20150104459A1.
